Laboratory results from PMC3540977 (Peptides, 2012).

System: bovine brain microvessel endothelial cells (BBMECs)
Assay: Metabolism of Dyn A 1–17 in the presence of BBMECs
Format: in vitro ADME
Conditions: incubation with bovine brain microvessel endothelial cells, LC-MS/MS

## Dynorphin A 1–17 [Dyn A 1–17]
  metabolite identified in the presence of BBMECs: Dyn A 1–6 is identified as a metabolite
